Source: paper PMC8298264, “Function of cofactor Akirin2 in the regulation of gene expression in model human neutrophil-like HL60 cells” (Bioscience Reports, 2021)

B1: sp¦Q7L5N7¦PCAT2_HUMAN (protein, UniProt Q7L5N7 1-544, looked up)
Lysophosphatidylcholine …: MSRCAQAAEVAATVPGAGVGNVGLRPPMVPRQASFFPPPVPNPFVQQTQIGSARRVQIVLLGIILLPIRVLLVALILLLAWPFAAISTVCCPEKLTHPITGWRRKITQTALKFLGRAMFFSMGFIVAVKGKIASPLEAPVFVAAPHSTFFDGIACVVAGLPSMVSRNENAQVPLIGRLLRAVQPVLVSRVDPDSRKNTINEIIKRTTSGGEWPQILVFPEGTCTNRSCLITFKPGAFIPGVPVQPVLLRYPNKLDTVTWTWQGYTFIQLCMLTFCQLFTKVEVEFMPVQVPNDEEKNDPVLFANKVRNLMAEALGIPVTDHTYEDCRLMISAGQLTLPMEAGLVEFTKISRKLKLDWDGVRKHLDEYASIASSSKGGRIGIEEFAKYLKLPVSDVLRQLFALFDRNHDGSIDFREYVIGLAVLCNPSNTEEIIQVAFKLFDVDEDGYITEEEFSTILQASLGVPDLDVSGLFKEIAQGDSISYEEFKSFALKHPEYAKIFTTYLDLQTCHVFSLPKEVQTTPSTASNKVSPEKHEESTSDKKDD
B2: sp¦Q9P035¦HACD3_HUMAN (protein, UniProt Q9P035 1-362, looked up)
Very-long-chain …: MENQVLTPHVYWAQRHRELYLRVELSDVQNPAISITENVLHFKAQGHGAKGDNVYEFHLEFLDLVKPEPVYKLTQRQVNITVQKKVSQWWERLTKQEKRPLFLAPDFDRWLDESDAEMELRAKEEERLNKLRLESEGSPETLTNLRKGYLFMYNLVQFLGFSWIFVNLTVRFCILGKESFYDTFHTVADMMYFCQMLAVVETINAAIGVTTSPVLPSLIQLLGRNFILFIIFGTMEEMQNKAVVFFVFYLWSAIEIFRYSFYMLTCIDMDWKVLTWLRYTLWIPLYPLGCLAEAVSVIQSIPIFNETGRFSFTLPYPVKIKVRFSFFLQIYLIMIFLGLYINFRHLYKQRRRRYGQKKKKIH
B3: sp¦P11387¦TOP1_HUMAN (protein, UniProt P11387 2-765, looked up)
DNA topoisomerase 1: SGDHLHNDSQIEADFRLNDSHKHKDKHKDREHRHKEHKKEKDREKSKHSNSEHKDSEKKHKEKEKTKHKDGSSEKHKDKHKDRDKEKRKEEKVRASGDAKIKKEKENGFSSPPQIKDEPEDDGYFVPPKEDIKPLKRPRDEDDADYKPKKIKTEDTKKEKKRKLEEEEDGKLKKPKNKDKDKKVPEPDNKKKKPKKEEEQKWKWWEEERYPEGIKWKFLEHKGPVFAPPYEPLPENVKFYYDGKVMKLSPKAEEVATFFAKMLDHEYTTKEIFRKNFFKDWRKEMTNEEKNIITNLSKCDFTQMSQYFKAQTEARKQMSKEEKLKIKEENEKLLKEYGFCIMDNHKERIANFKIEPPGLFRGRGNHPKMGMLKRRIMPEDIIINCSKDAKVPSPPPGHKWKEVRHDNKVTWLVSWTENIQGSIKYIMLNPSSRIKGEKDWQKYETARRLKKCVDKIRNQYREDWKSKEMKVRQRAVALYFIDKLALRAGNEKEEGETADTVGCCSLRVEHINLHPELDGQEYVVEFDFLGKDSIRYYNKVPVEKRVFKNLQLFMENKQPEDDLFDRLNTGILNKHLQDLMEGLTAKVFRTYNASITLQQQLKELTAPDENIPAKILSYNRANRAVAILCNHQRAPPKTFEKSMMNLQTKIDAKKEQLADARRDLKSAKADAKVMKDAKTKKVVESKKKAVQRLEEQLMKLEVQATDREENKQIALGTSKLNYLDPRITVAWCKKWGVPIEKIYNKTQREKFAWAIDMADEDYEF
B4: sp¦P42126¦ECI1_HUMAN (protein, UniProt P42126 42-302, looked up)
Enoyl-CoA delta isomerase 1, …: FGSQRVLVEPDAGAGVAVMKFKNPPVNSLSLEFLTELVISLEKLENDKSFRGVILTSDRPGVFSAGLDLTEMCGRSPAHYAGYWKAVQELWLRLYQSNLVLVSAINGACPAGGCLVALTCDYRILADNPRYCIGLNETQLGIIAPFWLKDTLENTIGHRAAERALQLGLLFPPAEALQVGIVDQVVPEEQVQSTALSAIAQWMAIPDHARQLTKAMMRKATASRLVTQRDADVQNFVSFISKDSIQKSLQMYLERLKEEKG
B5: sp¦P25815¦S100P_HUMAN (protein, UniProt P25815 1-95, looked up)
Protein S100-P: MTELETAMGMIIDVFSRYSGSEGSTQTLTKGELKVLMEKELPGFLQSGKDKDAVDKLLKDLDANGDAQVDFSEFIVFVAAITSACHKYFEKAGLK
B6: sp¦Q9H7B2¦RPF2_HUMAN (protein, UniProt Q9H7B2 1-306, looked up)
Ribosome production factor 2 …: MDTLDRVVKPKTKRAKRFLEKREPKLNENIKNAMLIKGGNANATVTKVLKDVYALKKPYGVLYKKKNITRPFEDQTSLEFFSKKSDCSLFMFGSHNKKRPNNLVIGRMYDYHVLDMIELGIENFVSLKDIKNSKCPEGTKPMLIFAGDDFDVTEDYRRLKSLLIDFFRGPTVSNIRLAGLEYVLHFTALNGKIYFRSYKLLLKKSGCRTPRIELEEMGPSLDLVLRRTHLASDDLYKLSMKMPKALKPKKKKNISHDTFGTTYGRIHMQKQDLSKLQTRKMKGLKKRPAERITEDHEKKSKRIKKN
B7: sp¦Q9NUQ9¦CYRIB_HUMAN (protein, UniProt Q9NUQ9 2-324, looked up)
CYFIP-related Rac1 interactor …: GNLLKVLTCTDLEQGPNFFLDFENAQPTESEKEIYNQVNVVLKDAEGILEDLQSYRGAGHEIREAIQHPADEKLQEKAWGAVVPLVGKLKKFYEFSQRLEAALRGLLGALTSTPYSPTQHLEREQALAKQFAEILHFTLRFDELKMTNPAIQNDFSYYRRTLSRMRINNVPAEGENEVNNELANRMSLFYAEATPMLKTLSDATTKFVSENKNLPIENTTDCLSTMASVCRVMLETPEYRSRFTNEETVSFCLRVMVGVIILYDHVHPVGAFAKTSKIDMKGCIKVLKDQPPNSVEGLLNALRYTTKHLNDETTSKQIKSMLQ
B8: sp¦Q9Y617¦SERC_HUMAN (protein, UniProt Q9Y617 1-370, looked up)
Phosphoserine aminotransferase: MDAPRQVVNFGPGPAKLPHSVLLEIQKELLDYKGVGISVLEMSHRSSDFAKIINNTENLVRELLAVPDNYKVIFLQGGGCGQFSAVPLNLIGLKAGRCADYVVTGAWSAKAAEEAKKFGTINIVHPKLGSYTKIPDPSTWNLNPDASYVYYCANETVHGVEFDFIPDVKGAVLVCDMSSNFLSKPVDVSKFGVIFAGAQKNVGSAGVTVVIVRDDLLGFALRECPSVLEYKVQAGNSSLYNTPPCFSIYVMGLVLEWIKNNGGAAAMEKLSSIKSQTIYEIIDNSQGFYVCPVEPQNRSKMNIPFRIGNAKGDDALEKRFLDKALELNMLSLKGHRSVGGIRASLYNAVTIEDVQKLAAFMKKFLEMHQL
B9: sp¦P36776¦LONM_HUMAN (protein, UniProt P36776 68-959, looked up)
Lon protease homolog, …: FWEASSRGGGAFSGGEDASEGGAEEGAGGAGGSAGAGEGPVITALTPMTIPDVFPHLPLIAITRNPVFPRFIKIIEVKNKKLVELLRRKVRLAQPYVGVFLKRDDSNESDVVESLDEIYHTGTFAQIHEMQDLGDKLRMIVMGHRRVHISRQLEVEPEEPEAENKHKPRRKSKRGKKEAEDELSARHPAELAMEPTPELPAEVLMVEVENVVHEDFQVTEEVKALTAEIVKTIRDIIALNPLYRESVLQMMQAGQRVVDNPIYLSDMGAALTGAESHELQDVLEETNIPKRLYKALSLLKKEFELSKLQQRLGREVEEKIKQTHRKYLLQEQLKIIKKELGLEKDDKDAIEEKFRERLKELVVPKHVMDVVDEELSKLGLLDNHSSEFNVTRNYLDWLTSIPWGKYSNENLDLARAQAVLEEDHYGMEDVKKRILEFIAVSQLRGSTQGKILCFYGPPGVGKTSIARSIARALNREYFRFSVGGMTDVAEIKGHRRTYVGAMPGKIIQCLKKTKTENPLILIDEVDKIGRGYQGDPSSALLELLDPEQNANFLDHYLDVPVDLSKVLFICTANVTDTIPEPLRDRMEMINVSGYVAQEKLAIAERYLVPQARALCGLDESKAKLSSDVLTLLIKQYCRESGVRNLQKQVEKVLRKSAYKIVSGEAESVEVTPENLQDFVGKPVFTVERMYDVTPPGVVMGLAWTAMGGSTLFVETSLRRPQDKDAKGDKDGSLEVTGQLGEVMKESARIAYTFARAFLMQHAPANDYLVTSHIHLHVPEGATPKDGPSAGCTIVTALLSLAMGRPVRQNLAMTGEVSLTGKILPVGGIKEKTIAAKRAGVTCIVLPAENKKDFYDLAAFITEGLEVHFVEHYREIFDIAFPDEQAEALAVER
B10: sp¦O95202¦LETM1_HUMAN (protein, UniProt O95202 116-739, looked up)
Mitochondrial proton/calcium …: DDSVVEKSLKSLKDKNKKLEEGGPVYSPPAEVVVKKSLGQRVLDELKHYYHGFRLLWIDTKIAARMLWRILNGHSLTRRERRQFLRICADLFRLVPFLVFVVVPFMEFLLPVAVKLFPNMLPSTFETQSLKEERLKKELRVKLELAKFLQDTIEEMALKNKAAKGSATKDFSVFFQKIRETGERPSNEEIMRFSKLFEDELTLDNLTRPQLVALCKLLELQSIGTNNFLRFQLTMRLRSIKADDKLIAEEGVDSLNVKELQAACRARGMRALGVTEDRLRGQLKQWLDLHLHQEIPTSLLILSRAMYLPDTLSPADQLKSTLQTLPEIVAKEAQVKVAEVEGEQVDNKAKLEATLQEEAAIQQEHREKELQKRSEVAKDFEPERVVAAPQRPGTEPQPEMPDTVLQSETLKDTAPVLEGLKEEEITKEEIDILSDACSKLQEQKKSLTKEKEELELLKEDVQDYSEDLQEIKKELSKTGEEKYVEESKASKRLTKRVQQMIGQIDGLISQLEMDQQAGKLAPANGMPTGENVISVAELINAMKQVKHIPESKLTSLAAALDENKDGKVNIDDLVKVIELVDKEDVHISTSQVAEIVATLEKEEKVEEKEKAKEKAEKEVAEVKS
B11: sp¦P47985¦UCRI_HUMAN (protein, UniProt P47985 79-274, looked up)
Cytochrome b-c1 complex …: SHTDIKVPDFSEYRRLEVLDSTKSSRESSEARKGFSYLVTGVTTVGVAYAAKNAVTQFVSSMSASADVLALAKIEIKLSDIPEGKNMAFKWRGKPLFVRHRTQKEIEQEAAVELSQLRDPQHDLDRVKKPEWVILIGVCTHLGCVPIANAGDFGGYYCPCHGSHYDASGRIRLGPAPLNLEVPTYEFTSDDMVIVG
B12: sp¦Q9NUQ2¦PLCE_HUMAN (protein, UniProt Q9NUQ2 1-364, looked up)
1-acyl-sn-glycerol-3-phosphate …: MLLSLVLHTYSMRYLLPSVVLLGTAPTYVLAWGVWRLLSAFLPARFYQALDDRLYCVYQSMVLFFFENYTGVQILLYGDLPKNKENIIYLANHQSTVDWIVADILAIRQNALGHVRYVLKEGLKWLPLYGCYFAQHGGIYVKRSAKFNEKEMRNKLQSYVDAGTPMYLVIFPEGTRYNPEQTKVLSASQAFAAQRGLAVLKHVLTPRIKATHVAFDCMKNYLDAIYDVTVVYEGKDDGGQRRESPTMTEFLCKECPKIHIHIDRIDKKDVPEEQEHMRRWLHERFEIKDKMLIEFYESPDPERRKRFPGKSVNSKLSIKKTLPSMLILSGLTAGMLMTDAGRKLYVNTWIYGTLLGCLWVTIKA

The molecules below were run on human HL60 cells (assay: SWATH-MS proteomics, differential protein representation, akirin2 KO vs WT HL60 cells). Conditions: KO vs WT HL60 cells; sheet "Under-represented in KO".
Assay type: cell-based
How it was run: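 Read-out is label-free SWATH-MS protein area, globally normalized to total detected-protein area, with identifications held at 1% FDR against a library from information-dependent acquisition.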

Molecule	Fold Change	Log (Fold Change)
B1	0.4537	-0.3432
B2	0.4569	-0.3402
B3	0.4613	-0.336
B4	0.4682	-0.3295
B5	0.4762	-0.3222
B6	0.4816	-0.3173
B7	0.4847	-0.3146
B8	0.4967	-0.3039
B9	0.5023	-0.2991
B10	0.5097	-0.2927

Same assay, conditions: akirin2 KO vs WT HL60 cells; sheet "Under-represented in KO"

Molecule	Fold Change	Log (Fold Change)
B11	0.2341	-0.6306
B12	0.2386	-0.6223
